# Laboratory results reported in patent USRE48267E1, “Variants of C-type natriuretic peptide” (priority 2009, dated 2020).
# Where a SMILES comes first, the peptide text is derived from it. Bridges are numbered along the chain shown (N, C = ends). Where no end group is shown, it is not given here. The star is where a group is joined. CH3O(CH2CH2O)11CH2CH2CO = COCCOCCOCCOCCOCCOCCOCCOCCOCCOCCOCCOCCC(=O)*; PEO12 = PEO12, 0.6 kDa, monodispersed; PEO24 = PEO24, 1.2 kDa, monodispersed; PEG2K = PEG2K (polydispersed); PEG1K = polydispersed PEG1K
# T1: NPR-B (natriuretic peptide receptor B), murine, expressed endogenously on NIH3T3 cells (murine, UniProt Q6VVW5 17-1047)
# T1 sequence (looked up): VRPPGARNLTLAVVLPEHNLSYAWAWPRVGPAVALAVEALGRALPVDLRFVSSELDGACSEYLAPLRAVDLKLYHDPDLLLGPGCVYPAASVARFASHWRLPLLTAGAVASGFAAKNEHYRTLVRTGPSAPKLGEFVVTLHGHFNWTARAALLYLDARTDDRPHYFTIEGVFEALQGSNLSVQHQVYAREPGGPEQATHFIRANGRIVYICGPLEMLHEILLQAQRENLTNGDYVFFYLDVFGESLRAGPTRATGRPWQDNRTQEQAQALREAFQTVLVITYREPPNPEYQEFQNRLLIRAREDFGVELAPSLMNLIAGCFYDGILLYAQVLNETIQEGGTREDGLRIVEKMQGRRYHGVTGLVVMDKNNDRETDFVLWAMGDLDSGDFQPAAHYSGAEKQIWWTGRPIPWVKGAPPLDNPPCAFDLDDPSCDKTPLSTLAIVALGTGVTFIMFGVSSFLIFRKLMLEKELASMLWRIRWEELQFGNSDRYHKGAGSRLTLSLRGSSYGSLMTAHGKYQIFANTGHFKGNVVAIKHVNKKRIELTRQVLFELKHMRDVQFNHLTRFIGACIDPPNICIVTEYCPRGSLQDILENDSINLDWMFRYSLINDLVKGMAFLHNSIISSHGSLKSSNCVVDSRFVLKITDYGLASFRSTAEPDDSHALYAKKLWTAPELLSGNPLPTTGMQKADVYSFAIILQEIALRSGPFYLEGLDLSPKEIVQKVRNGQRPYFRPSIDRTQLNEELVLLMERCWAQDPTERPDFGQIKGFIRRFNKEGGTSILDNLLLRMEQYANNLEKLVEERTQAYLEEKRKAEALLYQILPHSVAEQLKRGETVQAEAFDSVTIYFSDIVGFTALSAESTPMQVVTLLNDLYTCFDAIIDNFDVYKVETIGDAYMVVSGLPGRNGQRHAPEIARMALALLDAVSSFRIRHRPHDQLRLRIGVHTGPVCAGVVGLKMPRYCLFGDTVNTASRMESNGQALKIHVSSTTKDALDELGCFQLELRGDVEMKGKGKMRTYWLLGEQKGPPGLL
# Target: T1, NPR-B (natriuretic peptide receptor B), …
# Test: cell-based or functional assay
# Details: not given
Molecule,"cGMP response rel. to 1 uM CNP22; 10 nM peptide, NIH3T3 cells","cGMP response rel. to 1 uM CNP22; 1 uM peptide, NIH3T3 cells"
"PEG2K-GANRRGLSRGCFGLKLDRIGSMSGLGC (ends and bridges not checked) [PEG2K-GANRR-CNP22, K4R]",15 rel. to 1 uM CNP22 (100),45 rel. to 1 uM CNP22 (100)
"PEO24-GANSSGLSRGCFGLKLDRIGSMSGLGC (ends and bridges not checked) [PEO24-GANSS-CNP22, K4R]",8 rel. to 1 uM CNP22 (100),46 rel. to 1 uM CNP22 (100)
"PEO12-GANSSGLSRGCFGLKLDRIGSMSGLGC (ends and bridges not checked) [PEO12-GANSS-CNP22, K4R]",8 rel. to 1 uM CNP22 (100),52 rel. to 1 uM CNP22 (100)
"PEO24-RGLSRGCFGLKLDRIGSMSGLGC (ends and bridges not checked) [PEO24-R-CNP22, K4R]",15 rel. to 1 uM CNP22 (100),75 rel. to 1 uM CNP22 (100)
"PEO12-ERGLSRGCFGLKLDRIGSMSGLGC (ends and bridges not checked) [PEO12-ER-CNP22, K4R]",20 rel. to 1 uM CNP22 (100),92 rel. to 1 uM CNP22 (100)
"PEO24-GLSRGCFGLKLDRIGSMSGLGC (ends and bridges not checked) [PEO24-CNP22, K4R]",15 rel. to 1 uM CNP22 (100),56 rel. to 1 uM CNP22 (100)
PEO24-GANRRGLSRGCFGLKLDRIGSMSGLGC (ends and bridges not checked) [PEO24-GANRR-CNP22(K4R)],28 rel. to 1 uM CNP22 (100),82 rel. to 1 uM CNP22 (100)
"PEO24-ERGLSRGCFGLKLDRIGSMSGLGC (ends and bridges not checked) [PEO24-ER-CNP22, K4R]",6 rel. to 1 uM CNP22 (100),60 rel. to 1 uM CNP22 (100)
PEG1K-GANRRGLSRGCFGLKLDRIGSMSGLGC (ends and bridges not checked) [PEG1K-GANRR-CNP22(K4R)],15 rel. to 1 uM CNP22 (100),56 rel. to 1 uM CNP22 (100)
"PEO12-GLSRGCFGLKLDRIGSMSGLGC (ends and bridges not checked) [PEO12-CNP22, K4R]",13 rel. to 1 uM CNP22 (100),44 rel. to 1 uM CNP22 (100)
PEO12-GANRRGLSRGCFGLKLDRIGSMSGLGC (ends and bridges not checked) [PEO12-GANRR-CNP22(K4R)],40 rel. to 1 uM CNP22 (100),99 rel. to 1 uM CNP22 (100)
PEG2K-CFGLKLDRIGSMSGLGC (ends and bridges not checked) [PEG2K-CNP17],5 rel. to 1 uM CNP22 (100),50 rel. to 1 uM CNP22 (100)
"PEO12-RGLSRGCFGLKLDRIGSMSGLGC (ends and bridges not checked) [PEO12-R-CNP22, K4R]",23 rel. to 1 uM CNP22 (100),93 rel. to 1 uM CNP22 (100)
"PEO12-GANQQGLSRGCFGLKLDRIGSMSGLGC (ends and bridges not checked) [PEO12-GANQQ-CNP22, K4R]",30 rel. to 1 uM CNP22 (100),78 rel. to 1 uM CNP22 (100)
"PEO24-GANQQGLSRGCFGLKLDRIGSMSGLGC (ends and bridges not checked) [PEO24-GANQQ-CNP22, K4R]",16 rel. to 1 uM CNP22 (100),73 rel. to 1 uM CNP22 (100)

# Target: Recombinant human NEP (Homo sapiens, UniProt P08473)
# Sequence (P08473 whole entry): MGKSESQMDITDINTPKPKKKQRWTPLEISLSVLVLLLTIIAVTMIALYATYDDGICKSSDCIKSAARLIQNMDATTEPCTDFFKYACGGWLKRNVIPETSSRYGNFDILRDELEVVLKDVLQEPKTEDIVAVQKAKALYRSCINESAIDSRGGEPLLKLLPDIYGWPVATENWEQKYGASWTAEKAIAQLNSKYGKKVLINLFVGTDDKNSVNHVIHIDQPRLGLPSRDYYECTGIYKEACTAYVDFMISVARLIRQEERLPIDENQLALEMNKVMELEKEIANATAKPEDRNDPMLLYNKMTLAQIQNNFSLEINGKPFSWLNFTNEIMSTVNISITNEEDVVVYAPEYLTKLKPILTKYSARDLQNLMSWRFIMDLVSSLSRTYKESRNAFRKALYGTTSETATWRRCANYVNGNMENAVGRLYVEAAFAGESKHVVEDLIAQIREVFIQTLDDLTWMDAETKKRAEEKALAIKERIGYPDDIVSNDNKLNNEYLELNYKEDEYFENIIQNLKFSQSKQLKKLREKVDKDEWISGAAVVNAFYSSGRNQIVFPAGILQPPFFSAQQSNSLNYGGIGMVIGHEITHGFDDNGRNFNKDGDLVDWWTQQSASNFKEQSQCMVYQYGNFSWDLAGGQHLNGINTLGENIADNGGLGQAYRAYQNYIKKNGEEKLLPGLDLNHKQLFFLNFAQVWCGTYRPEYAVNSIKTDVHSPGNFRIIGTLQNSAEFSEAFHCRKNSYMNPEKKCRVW
# Test: in vitro NEP cleavage assay (disappearance of non-cleaved CNP variant)
# Details: not given
# Experimental: To determine the effects of amino acid substitutions, amino acid extensions, backbone modifications, side chain modifications and PEGylation on the susceptibility of CNP variants to neutral endopeptidase (NEP) cleavage, peptide cleavage assays were carried out using an in vitro assay that monitored disappearance of the non-cleaved CNP variant.
# Recombinant human NEP (1 ug/mL final concentration) was added to 100 uM CNP variant diluted in 0.1 M Tris, pH 7. The reaction mixture was incubated at 37° C. for various periods of time, and the reaction was quenched with EDTA (10 mM final) followed by heat denaturation. The reaction mixture was reduced and then the reaction products were analyzed using HPLC and mass spectroscopy. The half-life of the CNP variant was calculated based on the disappearance of intact CNP variant over time.
row,Molecule,resistance to NEP cleavage (in words)
1,CC[C@H](C)[C@@H]1NC(=O)[C@H](CCCNC(=N)N)NC(=O)[C@H](CC(=O)O)NC(=O)[C@H](CC(C)C)NC(=O)[C@H](CCCCN)NC(=O)[C@H](CC(C)C)NC(=O)CNC(=O)[C@H](Cc2ccccc2)NC(=O)[C@@H](NC(=O)CNC(=O)[C@H](CCCNC(=N)N)NC(=O)[C@H](CO)NC(=O)[C@H](CC(C)C)NC(=O)CNC(=O)[C@H](CCCNC(=N)N)NC(=O)[C@@H]2CCCN2C(=O)[C@H](CC(N)=O)NC(=O)[C@H](C)NC(=O)CNC(=O)CCOCCOCCOCCOCCOCCOCCOCCOCCOCCOCCOCCOC)CSSC[C@@H](C(=O)O)NC(=O)CNC(=O)[C@H](CC(C)C)NC(=O)CNC(=O)[C@H](CO)NC(=O)[C@H](CCSC)NC(=O)[C@H](CO)NC(=O)CNC1=O [PEO12-GANPR-CNP22(K4R)] ({CH3O(CH2CH2O)11CH2CH2CO}-GANPRGLSRGCFGLKLDRIGSMSGLGC-OH; disulfide 11-27; C-terminus assumed),same half-life as wtCNP22
2,"PEG2K-CNP22(K4G): CNP22 having a K4G substitution, N-terminal PEGylated with PEG2K (PEG2K-GLSGGCFGLKLDRIGSMSGLGC; not fully specified (bridges); ends and bridges not checked; UniProt P23582 105-126, looked up, variant K4G)",only slightly more resistant to NEP cleavage than CNP22
3,CC[C@H](C)[C@@H]1NC(=O)[C@H](CCCNC(=N)N)NC(=O)[C@H](CC(=O)O)NC(=O)[C@H](CC(C)C)NC(=O)[C@H](CCCCN)NC(=O)[C@H](CC(C)C)NC(=O)CNC(=O)[C@H](Cc2ccccc2)NC(=O)[C@@H](NC(=O)CNC(=O)[C@H](CCCNC(=N)N)NC(=O)[C@H](CO)NC(=O)[C@H](CC(C)C)NC(=O)CNC(=O)[C@@H](N)CCCNC(=N)N)CSSC[C@@H](C(=O)O)NC(=O)CNC(=O)[C@H](CC(C)C)NC(=O)CNC(=O)[C@H](CO)NC(=O)[C@H](CCSC)NC(=O)[C@H](CO)NC(=O)CNC1=O [Analog AZ] (H-RGLSRGCFGLKLDRIGSMSGLGC-OH; disulfide 7-23),most resistant to NEP degradation
4,PEG5K-CNP22: CNP22 conjugated at the N-terminus to polydispersed PEG5K,resistant to NEP degradation over the assay period of 160 minutes
5,CC[C@H](C)[C@@H]1NC(=O)[C@H](CCCNC(=N)N)NC(=O)[C@H](CC(=O)O)NC(=O)[C@H](CC(C)C)NC(=O)[C@H](CCCCN)NC(=O)[C@H](CC(C)C)NC(=O)CNC(=O)[C@H](Cc2ccccc2)NC(=O)[C@@H](NC(=O)CNC(=O)[C@H](CCCCN)NC(=O)[C@H](CO)NC(=O)[C@H](CC(C)C)NC(=O)CNC(=O)CCOCCOCCOCCOCCOCCOCCOCCOCCOCCOCCOCCOCCOCCOCCOCCOCCOCCOCCOCCOCCOCCOCCOCCOC)CSSC[C@@H](C(=O)O)NC(=O)CNC(=O)[C@H](CC(C)C)NC(=O)CNC(=O)[C@H](CO)NC(=O)[C@H](CCSC)NC(=O)[C@H](CO)NC(=O)CNC1=O [PEO24-CNP22],resistant to NEP degradation over the assay period of 160 minutes

# Same assay, conditions: 100 uM peptide, 1 ug/mL NEP, 0.1 M Tris pH 7, 37° C.; adjusted t1/2, CNP22 normalized to 80 min
row,Molecule,"NEP Cleavage (t1/2, min)"
1,CC[C@H](C)[C@@H]1NC(=O)[C@H](CCCNC(=N)N)NC(=O)[C@H](CC(=O)O)NC(=O)[C@H](CC(C)C)NC(=O)[C@H](CCCCN)NC(=O)[C@H](CC(C)C)NC(=O)CNC(=O)[C@H](Cc2ccccc2)NC(=O)[C@@H](NC(=O)CNC(=O)[C@H](CCCCN)NC(=O)[C@H](CO)NC(=O)[C@H](CC(C)C)NC(=O)CNC(=O)CCOCCOCCOCCOCCOCCOCCOCCOCCOCCOCCOCCOCCOCCOCCOCCOCCOCCOCCOCCOCCOCCOCCOCCOC)CSSC[C@@H](C(=O)O)NC(=O)CNC(=O)[C@H](CC(C)C)NC(=O)CNC(=O)[C@H](CO)NC(=O)[C@H](CCSC)NC(=O)[C@H](CO)NC(=O)CNC1=O [PEO24-CNP22],>>160 min

# Same assay, conditions: pH 7
row,Molecule,"NEP Cleavage (t1/2, min)"
1,"PEG1K-GANRR-CNP22(K4R): GANRR-CNP22, K4R (SEQ ID NO: 36) conjugated at the N-terminus to PEG1K (PEG1K-GANRRGLSRGCFGLKLDRIGSMSGLGC; not fully specified (bridges); ends and bridges not checked)",>160 min
2,PEG20K-CNP22: CNP22 conjugated at the N-terminus to polydispersed PEG20K,>>160 min
3,PEG1K-CNP22: CNP22 conjugated at the N-terminus to polydispersed PEG1K,>160 min
4,PEG5K-CNP22: CNP22 conjugated at the N-terminus to polydispersed PEG5K,>>160 min
